Experiments:
Test in all cases: cell-based or functional assay
[1] = biological target: Syk(h) (human) (UniProt P43405)
[2] = biological target: JAK2(h) (human) (UniProt O60674)
[3] = biological target: SAPK2a(T106M)(h) (human) (UniProt Q16539)
[4] = biological target: GRK6(h) (human) (UniProt P43250)
[5] = biological target: PASK(h) (human) (UniProt Q96RG2)
[6] = biological target: T1, MST2(h) (human) (UniProt Q13188)
T1 sequence (looked up): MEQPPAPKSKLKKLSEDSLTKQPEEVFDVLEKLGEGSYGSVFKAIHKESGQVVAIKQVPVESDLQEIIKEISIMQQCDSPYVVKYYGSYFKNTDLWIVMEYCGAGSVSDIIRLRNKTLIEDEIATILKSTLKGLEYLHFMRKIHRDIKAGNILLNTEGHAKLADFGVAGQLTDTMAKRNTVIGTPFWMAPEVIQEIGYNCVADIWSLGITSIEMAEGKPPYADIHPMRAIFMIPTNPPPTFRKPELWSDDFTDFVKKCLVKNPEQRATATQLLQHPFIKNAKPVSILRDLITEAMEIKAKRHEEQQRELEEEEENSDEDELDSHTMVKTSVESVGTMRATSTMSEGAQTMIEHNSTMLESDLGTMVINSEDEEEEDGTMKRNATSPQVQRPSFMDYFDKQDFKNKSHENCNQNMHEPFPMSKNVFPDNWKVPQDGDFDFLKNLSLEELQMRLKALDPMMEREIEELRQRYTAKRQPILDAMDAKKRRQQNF

[7] = biological target: MRCKβ(h) (human) (UniProt Q9Y5S2)
[8] = biological target: T2, Haspin(h) (human) (UniProt Q8TF76)
T2 sequence (looked up): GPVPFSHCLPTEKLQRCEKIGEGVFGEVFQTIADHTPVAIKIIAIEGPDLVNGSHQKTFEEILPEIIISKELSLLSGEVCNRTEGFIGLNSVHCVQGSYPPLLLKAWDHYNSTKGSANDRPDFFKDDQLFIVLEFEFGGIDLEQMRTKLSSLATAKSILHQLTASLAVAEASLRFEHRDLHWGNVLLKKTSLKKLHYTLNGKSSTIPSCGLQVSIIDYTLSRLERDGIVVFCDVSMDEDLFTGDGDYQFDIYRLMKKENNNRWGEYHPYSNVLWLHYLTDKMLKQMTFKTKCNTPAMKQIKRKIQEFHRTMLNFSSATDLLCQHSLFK

[9] = biological target: SRPK2(h) (human) (UniProt P78362)
[10] = biological target: Hck(h) (human) (UniProt P08631)
[11] = biological target: MEK1(h) (human) (UniProt Q02750)
[12] = biological target: MKK6(h) (human) (UniProt P52564)
[13] = biological target: Ros(h) (human) (UniProt P08922)
[14] = biological target: CDK6/cyclinD3(h) (human) (UniProt Q00534)
[15] = biological target: Flt4(h) (human) (UniProt P35916)
[16] = biological target: CK1δ(h) (human) (UniProt P48730)
[17] = biological target: PKCα(h) (human) (UniProt P17252)
[18] = biological target: MLK1(h) (human) (UniProt P80192)
[19] = biological target: MINK(h) (human) (UniProt Q8N4C8)
[20] = biological target: T3, SGK3(h) (human) (UniProt Q96BR1)
T3 sequence (looked up): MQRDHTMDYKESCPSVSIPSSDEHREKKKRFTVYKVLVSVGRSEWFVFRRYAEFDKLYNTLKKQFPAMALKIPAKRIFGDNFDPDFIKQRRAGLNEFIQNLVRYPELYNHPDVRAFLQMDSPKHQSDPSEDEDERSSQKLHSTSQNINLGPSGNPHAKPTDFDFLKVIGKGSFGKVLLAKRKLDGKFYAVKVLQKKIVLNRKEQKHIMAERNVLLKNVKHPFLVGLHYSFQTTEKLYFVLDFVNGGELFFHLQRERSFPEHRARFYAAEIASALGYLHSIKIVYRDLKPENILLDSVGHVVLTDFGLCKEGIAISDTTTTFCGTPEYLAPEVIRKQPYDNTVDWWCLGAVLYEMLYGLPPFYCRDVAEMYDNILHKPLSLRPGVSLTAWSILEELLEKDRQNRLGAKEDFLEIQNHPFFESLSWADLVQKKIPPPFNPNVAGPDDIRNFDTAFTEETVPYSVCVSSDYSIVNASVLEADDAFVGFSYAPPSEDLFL

[21] = biological target: T4, TAO1(h) (human) (UniProt Q7L7X3)
T4 sequence (looked up): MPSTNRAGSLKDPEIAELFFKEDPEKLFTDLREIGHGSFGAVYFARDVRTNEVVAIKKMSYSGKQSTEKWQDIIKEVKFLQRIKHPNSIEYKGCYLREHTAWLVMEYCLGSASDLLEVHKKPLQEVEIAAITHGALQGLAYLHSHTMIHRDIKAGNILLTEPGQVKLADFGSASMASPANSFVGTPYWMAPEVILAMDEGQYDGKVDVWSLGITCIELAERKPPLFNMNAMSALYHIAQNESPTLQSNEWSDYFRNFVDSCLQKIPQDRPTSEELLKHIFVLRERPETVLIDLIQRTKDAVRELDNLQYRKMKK

[22] = biological target: T5, EphA3(h) (human) (UniProt P29320)
T5 sequence (looked up): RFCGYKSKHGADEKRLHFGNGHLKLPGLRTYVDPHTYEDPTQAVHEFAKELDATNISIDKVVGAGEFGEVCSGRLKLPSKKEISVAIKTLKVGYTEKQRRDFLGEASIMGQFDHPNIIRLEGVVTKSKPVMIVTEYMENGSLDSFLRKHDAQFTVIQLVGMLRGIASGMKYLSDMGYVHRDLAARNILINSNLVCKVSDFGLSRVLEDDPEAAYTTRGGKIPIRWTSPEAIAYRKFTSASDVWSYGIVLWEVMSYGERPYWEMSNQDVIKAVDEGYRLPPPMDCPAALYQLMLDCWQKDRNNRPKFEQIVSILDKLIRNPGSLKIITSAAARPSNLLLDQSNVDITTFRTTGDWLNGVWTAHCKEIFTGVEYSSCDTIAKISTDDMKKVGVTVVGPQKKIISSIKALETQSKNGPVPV

Sequence of MKK6(h) (human) (P52564 whole entry): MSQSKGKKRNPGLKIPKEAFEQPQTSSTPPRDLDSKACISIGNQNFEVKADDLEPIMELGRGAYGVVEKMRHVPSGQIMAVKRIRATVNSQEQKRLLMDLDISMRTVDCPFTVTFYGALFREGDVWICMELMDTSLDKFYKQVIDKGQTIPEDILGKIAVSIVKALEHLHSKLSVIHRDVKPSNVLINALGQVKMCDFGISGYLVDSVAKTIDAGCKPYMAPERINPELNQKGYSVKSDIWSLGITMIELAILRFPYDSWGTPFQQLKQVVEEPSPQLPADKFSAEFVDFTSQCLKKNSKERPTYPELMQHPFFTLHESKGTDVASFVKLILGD
Sequence of Flt4(h) (human) (P35916 800-1363 limits assumed): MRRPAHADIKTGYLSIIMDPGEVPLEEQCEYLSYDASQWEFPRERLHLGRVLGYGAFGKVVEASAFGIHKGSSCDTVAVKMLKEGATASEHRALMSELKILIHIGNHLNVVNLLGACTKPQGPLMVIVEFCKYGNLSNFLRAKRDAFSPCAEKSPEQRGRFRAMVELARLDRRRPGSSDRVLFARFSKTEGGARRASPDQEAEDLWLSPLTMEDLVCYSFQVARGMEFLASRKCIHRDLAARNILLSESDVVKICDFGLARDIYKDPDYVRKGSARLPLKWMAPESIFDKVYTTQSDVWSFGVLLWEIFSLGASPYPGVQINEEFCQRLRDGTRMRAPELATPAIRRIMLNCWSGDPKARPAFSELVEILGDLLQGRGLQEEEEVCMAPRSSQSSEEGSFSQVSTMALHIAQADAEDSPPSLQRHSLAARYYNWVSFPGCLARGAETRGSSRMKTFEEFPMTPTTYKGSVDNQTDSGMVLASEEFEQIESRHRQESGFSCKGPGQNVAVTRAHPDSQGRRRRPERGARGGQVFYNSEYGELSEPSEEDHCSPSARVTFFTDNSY
Sequence of CK1δ(h) (human) (P48730 1-294, stated change not applied): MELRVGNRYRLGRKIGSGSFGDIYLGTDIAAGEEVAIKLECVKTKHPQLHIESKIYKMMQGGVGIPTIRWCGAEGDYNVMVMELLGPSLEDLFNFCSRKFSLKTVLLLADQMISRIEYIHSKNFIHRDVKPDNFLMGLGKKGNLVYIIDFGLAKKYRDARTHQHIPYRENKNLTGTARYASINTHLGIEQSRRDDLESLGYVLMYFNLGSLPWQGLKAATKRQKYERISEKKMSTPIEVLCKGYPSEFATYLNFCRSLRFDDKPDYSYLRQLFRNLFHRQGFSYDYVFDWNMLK
Sequence of Ros(h) (human) (P08922 1883-2347 limits assumed): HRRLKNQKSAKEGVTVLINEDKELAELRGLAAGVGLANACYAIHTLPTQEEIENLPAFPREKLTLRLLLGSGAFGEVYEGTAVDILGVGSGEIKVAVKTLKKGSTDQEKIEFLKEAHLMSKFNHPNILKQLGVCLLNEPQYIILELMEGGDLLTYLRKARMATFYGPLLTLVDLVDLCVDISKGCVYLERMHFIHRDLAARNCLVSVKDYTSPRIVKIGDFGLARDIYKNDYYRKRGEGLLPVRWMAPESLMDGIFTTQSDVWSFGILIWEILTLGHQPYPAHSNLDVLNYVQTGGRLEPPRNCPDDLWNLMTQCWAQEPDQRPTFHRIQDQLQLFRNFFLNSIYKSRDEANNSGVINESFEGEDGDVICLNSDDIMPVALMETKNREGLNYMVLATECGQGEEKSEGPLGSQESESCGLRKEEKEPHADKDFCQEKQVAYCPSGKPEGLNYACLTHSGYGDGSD
Sequence of GRK6(h) (human) (P43250 whole entry): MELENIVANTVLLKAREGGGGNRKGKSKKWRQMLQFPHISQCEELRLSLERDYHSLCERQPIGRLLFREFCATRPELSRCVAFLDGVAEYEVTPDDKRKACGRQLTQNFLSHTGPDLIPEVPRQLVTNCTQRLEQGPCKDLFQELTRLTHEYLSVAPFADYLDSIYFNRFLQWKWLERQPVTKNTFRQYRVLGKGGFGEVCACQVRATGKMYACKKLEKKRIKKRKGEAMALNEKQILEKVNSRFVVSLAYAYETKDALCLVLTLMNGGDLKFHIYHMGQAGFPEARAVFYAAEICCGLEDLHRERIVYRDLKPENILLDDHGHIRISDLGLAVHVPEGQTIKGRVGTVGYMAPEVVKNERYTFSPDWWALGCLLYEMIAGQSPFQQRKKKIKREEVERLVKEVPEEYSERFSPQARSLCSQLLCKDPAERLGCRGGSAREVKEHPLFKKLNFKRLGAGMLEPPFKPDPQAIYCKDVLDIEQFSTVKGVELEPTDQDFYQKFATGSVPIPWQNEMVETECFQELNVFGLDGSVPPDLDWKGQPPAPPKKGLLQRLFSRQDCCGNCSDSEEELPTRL
Sequence of JAK2(h) (human) (O60674 808-1132 limits assumed): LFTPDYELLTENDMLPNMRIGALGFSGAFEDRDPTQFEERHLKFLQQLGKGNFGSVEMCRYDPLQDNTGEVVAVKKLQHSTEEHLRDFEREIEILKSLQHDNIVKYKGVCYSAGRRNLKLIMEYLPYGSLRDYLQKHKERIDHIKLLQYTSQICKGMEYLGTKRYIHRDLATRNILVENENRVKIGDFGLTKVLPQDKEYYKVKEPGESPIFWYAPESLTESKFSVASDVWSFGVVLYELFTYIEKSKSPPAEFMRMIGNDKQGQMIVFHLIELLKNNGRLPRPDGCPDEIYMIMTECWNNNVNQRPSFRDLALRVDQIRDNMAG
Sequence of SRPK2(h) (human) (P78362 whole entry): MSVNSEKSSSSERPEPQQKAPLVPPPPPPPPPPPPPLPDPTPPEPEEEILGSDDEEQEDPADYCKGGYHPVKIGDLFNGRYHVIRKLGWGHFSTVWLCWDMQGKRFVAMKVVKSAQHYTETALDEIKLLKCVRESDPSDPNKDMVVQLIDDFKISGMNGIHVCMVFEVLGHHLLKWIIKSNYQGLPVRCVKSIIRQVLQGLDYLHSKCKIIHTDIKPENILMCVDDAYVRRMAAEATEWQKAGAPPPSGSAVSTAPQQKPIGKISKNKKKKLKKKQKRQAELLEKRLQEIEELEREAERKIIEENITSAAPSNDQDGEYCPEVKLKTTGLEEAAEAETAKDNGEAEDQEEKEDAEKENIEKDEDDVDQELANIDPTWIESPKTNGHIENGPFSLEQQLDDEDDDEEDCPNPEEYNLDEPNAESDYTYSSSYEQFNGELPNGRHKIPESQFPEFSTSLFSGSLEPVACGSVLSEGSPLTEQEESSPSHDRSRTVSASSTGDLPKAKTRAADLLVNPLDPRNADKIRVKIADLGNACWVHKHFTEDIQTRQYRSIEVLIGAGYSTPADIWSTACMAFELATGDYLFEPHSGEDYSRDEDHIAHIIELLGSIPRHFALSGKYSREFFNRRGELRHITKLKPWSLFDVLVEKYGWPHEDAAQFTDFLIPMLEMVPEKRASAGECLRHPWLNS
Sequence of MRCKβ(h) (human) (Q9Y5S2 1-473 limits assumed): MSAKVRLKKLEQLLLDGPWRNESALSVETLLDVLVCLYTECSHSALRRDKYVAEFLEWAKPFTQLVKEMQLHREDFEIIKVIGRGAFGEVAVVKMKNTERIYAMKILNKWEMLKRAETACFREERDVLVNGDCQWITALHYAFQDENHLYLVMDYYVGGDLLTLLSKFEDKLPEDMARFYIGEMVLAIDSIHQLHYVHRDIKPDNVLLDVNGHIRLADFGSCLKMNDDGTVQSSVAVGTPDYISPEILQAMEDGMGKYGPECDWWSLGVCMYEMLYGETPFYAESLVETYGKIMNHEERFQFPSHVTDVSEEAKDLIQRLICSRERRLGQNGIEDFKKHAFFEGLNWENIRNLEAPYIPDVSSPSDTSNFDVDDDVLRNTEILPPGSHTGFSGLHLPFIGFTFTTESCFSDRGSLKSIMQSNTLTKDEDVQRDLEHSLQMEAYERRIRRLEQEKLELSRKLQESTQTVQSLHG
Sequence of CDK6/cyclinD3(h) (human) (Q00534 whole entry, chain 1 of 2): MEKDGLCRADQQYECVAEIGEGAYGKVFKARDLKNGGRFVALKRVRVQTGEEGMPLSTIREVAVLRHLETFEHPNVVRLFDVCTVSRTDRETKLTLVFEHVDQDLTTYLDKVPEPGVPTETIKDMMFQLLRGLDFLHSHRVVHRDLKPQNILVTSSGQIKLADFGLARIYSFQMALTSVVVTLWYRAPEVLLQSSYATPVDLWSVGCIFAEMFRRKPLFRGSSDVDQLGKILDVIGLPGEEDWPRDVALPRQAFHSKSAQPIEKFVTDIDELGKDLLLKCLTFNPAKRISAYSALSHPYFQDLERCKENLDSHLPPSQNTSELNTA
Sequence of CDK6/cyclinD3(h) (human) (P30281 whole entry, chain 2 of 2, further chain): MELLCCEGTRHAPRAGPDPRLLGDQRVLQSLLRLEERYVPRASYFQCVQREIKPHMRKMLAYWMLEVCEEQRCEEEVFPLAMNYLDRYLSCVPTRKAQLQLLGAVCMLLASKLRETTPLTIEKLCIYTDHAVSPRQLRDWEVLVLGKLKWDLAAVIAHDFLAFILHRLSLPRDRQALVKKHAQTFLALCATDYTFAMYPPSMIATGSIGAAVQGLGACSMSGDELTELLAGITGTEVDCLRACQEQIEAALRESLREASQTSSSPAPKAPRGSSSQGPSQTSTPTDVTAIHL
Sequence of SAPK2a(T106M)(h) (human) (Q16539 whole entry T106M): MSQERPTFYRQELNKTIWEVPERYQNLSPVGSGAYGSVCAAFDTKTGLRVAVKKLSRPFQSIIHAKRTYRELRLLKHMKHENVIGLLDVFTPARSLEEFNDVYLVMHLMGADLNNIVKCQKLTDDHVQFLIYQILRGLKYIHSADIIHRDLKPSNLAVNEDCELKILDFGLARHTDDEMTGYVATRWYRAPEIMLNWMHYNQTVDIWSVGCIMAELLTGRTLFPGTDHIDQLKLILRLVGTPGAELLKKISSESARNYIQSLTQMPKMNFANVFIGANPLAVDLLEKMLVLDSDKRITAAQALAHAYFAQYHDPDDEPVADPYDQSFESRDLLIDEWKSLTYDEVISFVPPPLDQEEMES

% activity, 100 µM [1]: 5%
% activity, 100 µM [2]: 49%
% activity, 100 µM [3]: 32%
% activity, 100 µM [4]: 174%
% activity, 100 µM [5]: 9%
% activity, 100 µM [6]: 2%
% activity, 100 µM [7]: -10%
% activity, 100 µM [8]: 25%
% activity, 100 µM [9]: 80%
% activity, 100 µM [10]: 78%
% activity, 100 µM [11]: 21%
% activity, 100 µM [12]: 18%
% activity, 100 µM [13]: 150%
% activity, 100 µM [14]: 23%
% activity, 100 µM [15]: 73%
% activity, 100 µM [16]: 78%
% activity, 100 µM [17]: 3%
% activity, 100 µM [18]: 43%
% activity, 100 µM [19]: 5%
% activity, 100 µM [20]: -3%
% activity, 100 µM [21]: 24%
% activity, 100 µM [22]: 33%
Substance: MMI-0500 (peptide)

Reference: patent US20140072613A1, “Compositions and Methods for Treating Cutaneous Scarring” (priority 2012, published 2014)
